16 molecules from patent US20120322725A1 (INDIANA UNIVERSITY RESEARCH AND TECHNOLOGY, published 2012) can be followed below.

Values joined by “and” are separate entries in the source; they are usually repeats but may differ in a detail not shown here. Equal entries are not always repeated. Where two headings read alike, the source gives them in different places. Square brackets hold non-standard residues; d marks the D form. Ends that are not written are not given here. * marks the point of attachment. MCA = alpha-methylhydrocinnamic acid (2-methyl-3-phenylpropanoic acid); PLA = 3-phenyllactic acid (2-hydroxy-3-phenylpropanoic acid); PhLac = O=C(O)[C@@H](O)Cc1ccccc1; Carboxymethyl = O=C(O)C*

What is called IC50 is the concentration needed to halve the response being measured. A high value points to weaker potency in that assay.

In experiment [1] the target is T1, glucagon receptor (UniProt P47871 26-477, limits assumed).
T1 construct: whole, on cells; also called GR; Glucagon
Briefly: receptor binding, method not described.

Experiment [2] deals with T1, glucagon receptor. The experiment in a line: cell-based or functional assay.
In experiment [3] the target is T1, glucagon receptor. Briefly: cell-based or functional assay. This is another data set of the same source.
Experiment [4] addresses T1, glucagon receptor. The experiment in a line: cell-based or functional assay. The source holds these as a separate data set.
Experiment [5] has as its target T1, glucagon receptor. The experiment in a line: receptor binding (named so for the same values in Table I), method not described.
The target in experiment [6] is T1, glucagon receptor. Briefly: cell-based or functional assay. The source holds these as a separate data set.
Experiment [7] addresses T1, glucagon receptor. Briefly: receptor binding, method not described. This is another data set of the same source.

T1 sequence (P47871 26-477 limits assumed): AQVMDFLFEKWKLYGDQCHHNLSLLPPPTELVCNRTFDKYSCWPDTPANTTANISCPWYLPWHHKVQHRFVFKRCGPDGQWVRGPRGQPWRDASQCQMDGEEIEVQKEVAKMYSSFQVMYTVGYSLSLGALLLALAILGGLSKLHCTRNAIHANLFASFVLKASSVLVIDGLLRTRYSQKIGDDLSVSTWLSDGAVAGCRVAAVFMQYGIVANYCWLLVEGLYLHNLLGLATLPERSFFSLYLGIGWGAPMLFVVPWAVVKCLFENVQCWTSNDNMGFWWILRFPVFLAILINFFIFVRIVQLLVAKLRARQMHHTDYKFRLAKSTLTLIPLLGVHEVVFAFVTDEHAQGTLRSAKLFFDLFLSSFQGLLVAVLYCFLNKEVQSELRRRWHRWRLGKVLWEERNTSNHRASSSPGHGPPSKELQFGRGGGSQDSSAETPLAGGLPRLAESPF

B1: [C5(1.2kDaPEG), E9]Glucagon(aa5-29)-NH2 (peptide)
peptide: C(PEG 1.2 kDa)FTSEYSKYLDSRRAQDFVQWLMNT-NH2
On to B1, for which the IC50 with glucagon receptor [1] was 1080 nM. Besides, the “IC50(nM) (cAMP, inhibit 0.2 mM Glucagon)” value in the experiment with glucagon receptor [2] worked out at 2280 nM.

B2: [C5(5kDaPEG), E9]Glucagon(aa5-29)-NH2 (peptide)
peptide: C(PEG 5 kDa)FTSEYSKYLDSRRAQDFVQWLMNT-NH2
The molecule B2 displayed an IC50 in the experiment with glucagon receptor [1] of 634 nM. For the same molecule, the “IC50(nM) (cAMP, inhibit 0.2 mM Glucagon)” value with glucagon receptor [2] worked out at 1610 nM.

B3: [MCA6, E9, C24(20kDaPEG)]Glucagon(aa6-29)-NH2 (peptide)
peptide: [MCA]TSEYSKYLDSRRAQDFVC(maleimido methoxyPEG 20 kDa)WLMNT-NH2
B3: the IC50 with glucagon receptor [1] came to 208 nM.

B4: [PLA6, E9, C24(20kDaPEG)]Glucagon(aa6-29)-NH2 (peptide)
peptide: [PhLac]TSEYSKYLDSRRAQDFVC(maleimido methoxyPEG 20 kDa)WLMNT-NH2
Molecule B4 showed an IC50 with glucagon receptor [1] of 90 nM. For the same molecule, the “IC50(nM) (cAMP, inhibit 0.2 mM Glucagon)” value with glucagon receptor [2] came out at 126 nM.

B5: [PLA6, C8(20kDaPEG), E9]Glucagon(aa6-29)-NH2 (peptide)
peptide: [PhLac]TC(maleimido methoxyPEG 20 kDa)EYSKYLDSRRAQDFVQWLMNT-NH2
The molecule B5 yielded an IC50 with glucagon receptor [1] of 303 nM. Moreover, the “IC50(nM) (cAMP, inhibit 0.2 mM Glucagon)” value in the experiment with glucagon receptor [2] is 236 nM and 92 nM.

B6: [PLA6, E9, C11(20kDaPEG)]Glucagon(aa6-29)-NH2 (peptide)
peptide: [PhLac]TSEYC(maleimido methoxyPEG 20 kDa)KYLDSRRAQDFVQWLMNT-NH2
In the experiment with glucagon receptor [1], B6 had an IC50 of 776 nM. Also, the “IC50(nM) (cAMP, inhibit 0.2 mM Glucagon)” value in the experiment with glucagon receptor [2] was determined as 664 nM.

B7: 3.4kDaPEG-dimer[C5, E9]Glucagon(aa5-29)-NH2 (peptide)
peptide: C(PEG 3.4 kDa)FTSEYSKYLDSRRAQDFVQWLMNT-NH2
modifications: also: dimer: two chains joined by 3.4 kDa PEG at Cys5
Take B7: the IC50 with glucagon receptor [1] was found to be 435 nM. Moreover, the “IC50(nM) (cAMP, inhibit 0.2 mM Glucagon)” value in the experiment with glucagon receptor [2] came out at 1340 nM.

B8: [desHis^1, Leu^4, hCys^9(SO3^-), Phe^25, Leu^27]Glucagon-NH2 (peptide)
peptide: SQLTFTSXYSKYLDSRRAQDFVQFLLNT
HELM: PEPTIDE1{S.Q.L.T.F.T.S.[O=C([C@H](CCS(=O)(=O)O)N[*:1])[*:2]].Y.S.K.Y.L.D.S.R.R.A.Q.D.F.V.Q.F.L.L.N.T.[am]}$$$$V2.0; N-terminus assumed
SMILES: CC(C)C[C@H](NC(=O)[C@H](Cc1ccc(O)cc1)NC(=O)[C@H](CCCCN)NC(=O)[C@H](CO)NC(=O)[C@H](Cc1ccc(O)cc1)NC(=O)[C@H](CCS(=O)(=O)O)NC(=O)[C@H](CO)NC(=O)[C@@H](NC(=O)[C@H](Cc1ccccc1)NC(=O)[C@@H](NC(=O)[C@H](CC(C)C)NC(=O)[C@H](CCC(N)=O)NC(=O)[C@@H](N)CO)[C@@H](C)O)[C@@H](C)O)C(=O)N[C@@H](CC(=O)O)C(=O)N[C@@H](CO)C(=O)N[C@@H](CCCNC(=N)N)C(=O)N[C@@H](CCCNC(=N)N)C(=O)N[C@@H](C)C(=O)N[C@@H](CCC(N)=O)C(=O)N[C@@H](CC(=O)O)C(=O)N[C@@H](Cc1ccccc1)C(=O)N[C@H](C(=O)N[C@@H](CCC(N)=O)C(=O)N[C@@H](Cc1ccccc1)C(=O)N[C@@H](CC(C)C)C(=O)N[C@@H](CC(C)C)C(=O)N[C@@H](CC(N)=O)C(=O)N[C@H](C(N)=O)[C@@H](C)O)C(C)C
Consider B8, for which, in the experiment with glucagon receptor [3], the “cAMP Induction EC50” value came out at 1610 nM and the “cAMP Inhibition IC50” value stood at 4460 nM.

B9: [C5(20kDaPEG), E9]Glucagon(aa5-29)-NH2 (peptide)
peptide: C(PEG 20 kDa)FTSEYSKYLDSRRAQDFVQWLMNT-NH2
On to B9, for which the IC50 with glucagon receptor [1] worked out at 331 nM. Besides, the “IC50(nM) (cAMP, inhibit 0.2 mM Glucagon)” value with glucagon receptor [2] came to 976 nM.

B10: [PLA6, C8(1.2kDaPEG), E9]Glucagon(aa6-29)-NH2 (peptide)
peptide: {PLA}-TC(PEG 1.2 kDa)EYSKYLDSRRAQDFVQWLMNT-NH2
On to B10, for which the IC50 with glucagon receptor [1] came out at 220 nM.

B11: [PLA6, E9,C24(1.2 kDaPEG)]Glucagon(aa6-29)-NH2 (peptide)
peptide: {PLA}-TSEYSKYLDSRRAQDFVC(PEG 1.2 kDa)WLMNT-NH2
As to B11, the IC50 with glucagon receptor [1] is 4.7 nM. In the experiment with glucagon receptor [2], the “IC50(nM) (cAMP, inhibit 0.2 mM Glucagon)” value was 18 nM.

B12: [PLA6, C8(5kDaPEG), E9]Glucagon(aa6-29)-NH2 (peptide)
peptide: {PLA}-TC(PEG 5 kDa)EYSKYLDSRRAQDFVQWLMNT-NH2
Take B12: in the experiment with glucagon receptor [1], the IC50 came out at 948 nM. For the same molecule, the “IC50(nM) (cAMP, inhibit 0.2 mM Glucagon)” value in the experiment with glucagon receptor [2] is 216 nM.

B13: Glucagon(aa6-29)-NH2 (peptide)
peptide: FTSDYSKYLDSRRAQDFVQWLMNT-NH2
notes: also called peptide no
On to B13, for which the “cAMP IC50” value with glucagon receptor [4] worked out at 346 nM. The “cAMP pA2” value with glucagon receptor [4] and in the experiment with glucagon receptor [6] was 6.94 each time. Moreover, the IC50 with glucagon receptor [5] came to 1890 nM; with glucagon receptor [7] it was 1670 nM. Moreover, the “cAMP (I/A)50” value with glucagon receptor [6] worked out at 1730.

B14: [(CSA-2)^9]Glucagon(aa6-29)-NH2 (peptide)
peptide: FTSCYSKYLDSRRAQDFVQWLMNT
HELM: PEPTIDE1{F.T.S.[O=C(O)CCSC[C@H](N[*:1])C(=O)[*:2]].Y.S.K.Y.L.D.S.R.R.A.Q.D.F.V.Q.W.L.M.N.T.[am]}$$$$V2.0; N-terminus assumed
SMILES: CSCC[C@H](NC(=O)[C@H](CC(C)C)NC(=O)[C@H](Cc1c[nH]c2ccccc12)NC(=O)[C@H](CCC(N)=O)NC(=O)[C@@H](NC(=O)[C@H](Cc1ccccc1)NC(=O)[C@H](CC(=O)O)NC(=O)[C@H](CCC(N)=O)NC(=O)[C@H](C)NC(=O)[C@H](CCCNC(=N)N)NC(=O)[C@H](CCCNC(=N)N)NC(=O)[C@H](CO)NC(=O)[C@H](CC(=O)O)NC(=O)[C@H](CC(C)C)NC(=O)[C@H](Cc1ccc(O)cc1)NC(=O)[C@H](CCCCN)NC(=O)[C@H](CO)NC(=O)[C@H](Cc1ccc(O)cc1)NC(=O)[C@H](CSCCC(=O)O)NC(=O)[C@H](CO)NC(=O)[C@@H](NC(=O)[C@@H](N)Cc1ccccc1)[C@@H](C)O)C(C)C)C(=O)N[C@@H](CC(N)=O)C(=O)N[C@H](C(N)=O)[C@@H](C)O
notes: also called [C^9(SCH2CH2COOH)]Glucagon(aa6-29)-NH2; peptide no
For B14, in the experiment with glucagon receptor [4], the “cAMP IC50” value is 116 nM. The “cAMP pA2” value in the experiment with glucagon receptor [4] and in the experiment with glucagon receptor [6] was 6.64 each time. In addition, the IC50 with glucagon receptor [5] and in the experiment with glucagon receptor [7] was 146 nM in each case. Moreover, the “cAMP (I/A)50” value in the experiment with glucagon receptor [6] was 580.

B15: [(CSA-1)^9]Glucagon(aa6-29)-NH2 (peptide)
peptide: FTSC(Carboxymethyl)YSKYLDSRRAQDFVQWLMNT-NH2
modifications: N-terminus assumed
SMILES: CSCC[C@H](NC(=O)[C@H](CC(C)C)NC(=O)[C@H](Cc1c[nH]c2ccccc12)NC(=O)[C@H](CCC(N)=O)NC(=O)[C@@H](NC(=O)[C@H](Cc1ccccc1)NC(=O)[C@H](CC(=O)O)NC(=O)[C@H](CCC(N)=O)NC(=O)[C@H](C)NC(=O)[C@H](CCCNC(=N)N)NC(=O)[C@H](CCCNC(=N)N)NC(=O)[C@H](CO)NC(=O)[C@H](CC(=O)O)NC(=O)[C@H](CC(C)C)NC(=O)[C@H](Cc1ccc(O)cc1)NC(=O)[C@H](CCCCN)NC(=O)[C@H](CO)NC(=O)[C@H](Cc1ccc(O)cc1)NC(=O)[C@H](CSCC(=O)O)NC(=O)[C@H](CO)NC(=O)[C@@H](NC(=O)[C@@H](N)Cc1ccccc1)[C@@H](C)O)C(C)C)C(=O)N[C@@H](CC(N)=O)C(=O)N[C@H](C(N)=O)[C@@H](C)O
notes: also called [C^9(SCH2COOH)]Glucagon(aa6-29)-NH2; peptide no
B15: in the experiment with glucagon receptor [4], the “cAMP IC50” value came out at 101 nM and the “cAMP pA2” value is 6.68. The molecule further yielded an IC50 in the experiment with glucagon receptor [5] of 107 nM. Further, in the experiment with glucagon receptor [6], the “cAMP (I/A)50” value came out at 506 and the “cAMP pA2” value was 6.68. The same molecule showed a half-maximal inhibitory concentration (IC50) with glucagon receptor [7] of 107 nM.

B16: [Leu^4, Glu^9]Glucagon(aa4-29)-NH2 (peptide)
peptide: LTFTSEYSKYLDSRRAQDFVQWLMNT-NH2
notes: also called peptide no
Turning to B16, in the experiment with glucagon receptor [5], the IC50 stood at 36.4 nM.
